This passage reports EC50 results from US20240383985A1 (published 2024).

The term EC50 denotes the concentration needed to bring the measured effect to its halfway point. Low readings indicate a more potent agent, high ones a less potent agent.

Experiment [1] concerns the target CD38 naturally expressed on Daudi cells (human, UniProt P28907 1-300). Kind of experiment: FACS; FIG. 24.
The target in the next experiment is T1, CS1-Fc (UniProt Q9NQ25 23-226).
T1 chain: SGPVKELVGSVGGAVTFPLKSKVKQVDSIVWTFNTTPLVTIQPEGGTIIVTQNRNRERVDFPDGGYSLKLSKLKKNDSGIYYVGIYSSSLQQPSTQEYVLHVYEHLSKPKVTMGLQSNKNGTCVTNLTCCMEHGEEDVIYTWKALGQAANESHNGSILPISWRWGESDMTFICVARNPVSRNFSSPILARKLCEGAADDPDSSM
The experiment in a line: ELISA.

For experiment [2], the target named is T2, CD33 naturally expressed on HL60 cells (human, UniProt P20138 18-364). The experiment in a line: FACS. (In general: A flow cytometer gives signals particle by particle.)
Experiment [3] deals with T2, CD33 naturally expressed on HL60 cells. The experiment in a line: FACS. The source holds these as a separate data set.

Like-named read-outs stand apart in the source and are kept apart here.

T2 sequence (P20138 18-364): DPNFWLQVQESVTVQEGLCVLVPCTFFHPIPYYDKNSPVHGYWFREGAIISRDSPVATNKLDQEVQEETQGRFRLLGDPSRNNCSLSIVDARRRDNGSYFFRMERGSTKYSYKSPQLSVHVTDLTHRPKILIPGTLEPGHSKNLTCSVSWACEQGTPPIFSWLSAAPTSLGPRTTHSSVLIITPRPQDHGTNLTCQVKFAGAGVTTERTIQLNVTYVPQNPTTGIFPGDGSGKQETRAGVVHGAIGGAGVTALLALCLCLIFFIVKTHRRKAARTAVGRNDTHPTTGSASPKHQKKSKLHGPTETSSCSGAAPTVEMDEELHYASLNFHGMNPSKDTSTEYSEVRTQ

B1: QP34483449 (antibody, V domains shown)
VH: EVQLVESGGGLVQPGGSLRLSCAASGFDFSRYWMSWVRQAPGKGLEWIGEINPDSSTINYAPSLKDKFIISRDNAKNSLYLQMNSLRAEDTAVYYCARPDGNYWYFDVWGQGTLVTVSS
VL: MDMRVPAQLLGLLLLWFPGSRCDIQMTQSPSSLSASVGDRVTITCKASQDVGIAVAWYQQKPGKVPKLLIYWASTRHTGVPDRFSGSGSGTDFTLTISSLQPEDVATYYCQQYSSYPYTFGQGTKVEIKR
Molecule B1 returned an EC50 in experiment [1] of 18.4 nM.

B2: CS1/CD16A/IL-15 trifunctional fusion protein QP43394342 (FC with L234A/L235A mutation for eliminating function) (bispecific antibody)
chain 1: not shown
chain 2: not shown
light: DIQMTQSPSSLSASVGDRVTITCKASQDVGIAVAWYQQKPGKVPKLLIYWASTRHTGVPDRFSGSGSGTDFTLTISSLQPEDVATYYCQQYSSYPYTFGQGTKVEIKRTVAAPSVFIFPPSDEQLKSGTASVVCLLNNFYPREAKVQWKVDNALQSGNSQESVTEQDSKDSTYSLSSTLTLSKADYEKHKVYACEVTHQGLSSPVTKSFNRGEC
heavy: EVQLVESGGGLVQPGGSLRLSCAASGFDFSRYWMSWVRQAPGKGLEWIGEINPDSSTINYAPSLKDKFIISRDNAKNSLYLQMNSLRAEDTAVYYCARPDGNYWYFDVWGQGTLVTVSSASTKGPSVFPLAPSSKSTSGGTAALGCLVKDYFPEPVTVSWNSGALTSGVHTFPAVLQSSGLYSLSSVVTVPSSSLGTQTYICNVNHKPSNTKVDKKVEPKSCDKTHTCPPCPAPEAAGGPSVFLFPPKPKDTLMISRTPEVTCVVVDVSHEDPEVKFNWYVDGVEVHNAKTKPREEQYNSTYRVVSVLTVLHQDWLNGKEYKCKVSNKALPAPIEKTISKAKGQPREPQVYTLPPSREEMTKNQVSLSCAVKGFYPSDIAVEWESNGQPENNYKTTPPVLDSDGSFFLVSKLTVDKSRWQQGNVFSCSVMHEALHNRYTQKSLSLSPGKGGSHHHHHH
Molecule B2 displayed an EC50 in the experiment with CS1-Fc of 1.77 µg/mL.

B3: CS1/CD16A/IL-15 trifunctional fusion protein QP7434262 (FC wildtype) (bispecific antibody)
chain 1: not shown
chain 2: not shown
light: DIQMTQSPSSLSASVGDRVTITCKASQDVGIAVAWYQQKPGKVPKLLIYWASTRHTGVPDRFSGSGSGTDFTLTISSLQPEDVATYYCQQYSSYPYTFGQGTKVEIKRTVAAPSVFIFPPSDEQLKSGTASVVCLLNNFYPREAKVQWKVDNALQSGNSQESVTEQDSKDSTYSLSSTLTLSKADYEKHKVYACEVTHQGLSSPVTKSFNRGEC
heavy: EVQLVESGGGLVQPGGSLRLSCAASGFDFSRYWMSWVRQAPGKGLEWIGEINPDSSTINYAPSLKDKFIISRDNAKNSLYLQMNSLRAEDTAVYYCARPDGNYWYFDVWGQGTLVTVSSASTKGPSVFPLAPSSKSTSGGTAALGCLVKDYFPEPVTVSWNSGALTSGVHTFPAVLQSSGLYSLSSVVTVPSSSLGTQTYICNVNHKPSNTKVDKKVEPKSCDKTHTCPPCPAPELLGGPSVFLFPPKPKDTLMISRTPEVTCVVVDVSHEDPEVKFNWYVDGVEVHNAKTKPREEQYNSTYRVVSVLTVLHQDWLNGKEYKCKVSNKALPAPIEKTISKAKGQPREPQVYTLPPSREEMTKNQVSLSCAVKGFYPSDIAVEWESNGQPENNYKTTPPVLDSDGSFFLVSKLTVDKSRWQQGNVFSCSVMHEALHNRYTQKSLSLSPGKGGSHHHHHH
B3 gave an EC50 with CS1-Fc of around 0.839 µg/mL.

B4: CD33/CD16A/IL-15 trifunctional fusion protein QP42914285 (FC with L234A/L235A mutation for eliminating function) (bispecific antibody)
light: SYVLTQPSSVSVAPGQTATISCGGHNIGSKNVHWYQQRPGQSPVLVIYQDNKRPSGIPERFSGSNSGNTATLTISGTQAMDEADYYCQVWDNYSVLFGGGTKLTVLRTVAAPSVFIFPPSDEQLKSGTASVVCLLNNFYPREAKVQWKVDNALQSGNSQESVTEQDSKDSTYSLSSTLTLSKADYEKHKVYACEVTHQGLSSPVTKSFNRGEC
heavy: QVQLVQSGAEVKKPGESLKVSCKASGYTFTSYYMHWVRQAPGQGLEWMGIINPSGGSTSYAQKFQGRVTMTRDTSTSTVYMELSSLRSEDTAVYYCARGSAYYYDFADYWGQGTLVTVSSASTKGPSVFPLAPSSKSTSGGTAALGCLVKDYFPEPVTVSWNSGALTSGVHTFPAVLQSSGLYSLSSVVTVPSSSLGTQTYICNVNHKPSNTKVDKKVEPKSCDKTHTCPPCPAPEAAGGPSVFLFPPKPKDTLMISRTPEVTCVVVDVSHEDPEVKFNWYVDGVEVHNAKTKPREEQYNSTYRVVSVLTVLHQDWLNGKEYKCKVSNKALPAPIEKTISKAKGQPREPQVYTLPPSREEMTKNQVSLSCAVKGFYPSDIAVEWESNGQPENNYKTTPPVLDSDGSFFLVSKLTVDKSRWQQGNVFSCSVMHEALHNRYTQKSLSLSPGKGGSHHHHHH
chain 1: not shown
chain 2: not shown
Turning to B4, the EC50 is 3.08 nM in experiment [2] and 4.51 nM in experiment [3].

B5: CD33 antibody IgG1 wt subtype QP41154116 (antibody, V domains shown)
VH: QVQLVQSGAEVKKPGESVKVSCKASGYTFTNYGMNWVKQAPGQGLEWMGWINTYTGEPTYADKFQGRVTMTTDTSTSTAYMEIRNLGGDDTAVYYCARWSWSDGYYVYFDYWGQGTSVTVSS
VL: DIVMTQSPDSLTVSLGERTTINCKSSQSVLDSSTNKNSLAWYQQKPGQPPKLLLSWASTRESGIPDRFSGSGSGTDFTLTIDSPQPEDSATYYCQQSAHFPITFGQGTRLEIKR
With B5, the EC50 came out at 2.89 nM in experiment [2] and 3.31 nM in experiment [3].

B6: QP43354336 (antibody, V domains shown)
VH: QVQLVQSGAEVKKPGESLKVSCKASGYTFTSYYMHWVRQAPGQGLEWMGIINPSGGSTSYAQKFQGRVTMTRDTSTSTVYMELSSLRSEDTAVYYCARGSAYYYDFADYWGQGTLVTVSS
VL: MDMRVPAQLLGLLLLWFPGSRCSYVLTQPSSVSVAPGQTATISCGGHNIGSKNVHWYQQRPGQSPVLVIYQDNKRPSGIPERFSGSNSGNTATLTISGTQAMDEADYYCQVWDNYSVLFGGGTKLTVLR
For B6, the EC50 in experiment [1] is around 0.289 nM; in experiment [3], 21.4 nM.

B7: QP344944564368 (antibody)
chain 1: not shown
chain 2: MEFGLSWLFLVAILKGVQCEVQLVESGGGLVQPGGSLRLSCAASGFDFSRYWMSWVRQAPGKGLEWIGEINPDSSTINYAPSLKDKFIISRDNAKNSLYLQMNSLRAEDTAVYYCARPDGNYWYFDVWGQGTLVTVSSASTKGPSVFPLAPSSKSTSGGTAALGCLVKDYFPEPVTVSWNSGALTSGVHTFPAVLQSSGLYSLSSVVTVPSSSLGTQTYICNVNHKPSNTKVDKKVEPKSCDKTHTCPPCPAPEAAGGPSVFLFPPKPKDTLMISRTPEVTCVVVDVSHEDPEVKFNWYVDGVEVHNAKTKPREEQYNSTYRVVSVLTVLHQDWLNGKEYKCKVSNKALPAPIEKTISKAKGQPREPQVYTLPPSREEMTKNQVSLSCAVKGFYPSDIAVEWESNGQPENNYKTTPPVLDSDGSFFLVSKLTVDKSRWQQGNVFSCSVMHEALHNRYTQKSLSLSPGKGGSHHHHHH
chain 3: MDMRVPAQLLGLLLLWFPGSRCDIQMTQSPSSLSASVGDRVTITCKASQDVGIAVAWYQQKPGKVPKLLIYWASTRHTGVPDRFSGSGSGTDFTLTISSLQPEDVATYYCQQYSSYPYTFGQGTKVEIKRTVAAPSVFIFPPSDEQLKSGTASVVCLLNNFYPREAKVQWKVDNALQSGNSQESVTEQDSKDSTYSLSSTLTLSKADYEKHKVYACEVTHQGLSSPVTKSFNRGEC
B7 came in with an EC50 with CS1-Fc of 5.24 µg/mL.

B8: QP42714274 (antibody)
chain 1: not shown
chain 2: EVQLLESGGGLVQPGGSLRLSCAVSGFTFNSFAMSWVRQAPGKGLEWVSAISGSGGGTYYADSVKGRFTISRDNSKNTLYLQMNSLRAEDTAVYFCAKDKILWFGEPVFDYWGQGTLVTVSSASTKGPSVFPLAPSSKSTSGGTAALGCLVKDYFPEPVTVSWNSGALTSGVHTFPAVLQSSGLYSLSSVVTVPSSSLGTQTYICNVNHKPSNTKVDKKVEPKSCDKTHTCPPCPAPEAAGGPSVFLFPPKPKDTLMISRTPEVTCVVVDVSHEDPEVKFNWYVDGVEVHNAKTKPREEQYNSTYRVVSVLTVLHQDWLNGKEYKCKVSNKALPAPIEKTISKAKGQPREPQVYTLPPSREEMTKNQVSLSCAVKGFYPSDIAVEWESNGQPENNYKTTPPVLDSDGSFFLVSKLTVDKSRWQQGNVFSCSVMHEALHNRYTQKSLSLSPGKGGSHHHHHH
chain 3: not shown
chain 4: not shown
Regarding B8, in experiment [1], the EC50 amounted to 4.76 nM.
